The values below come from US20260000736A1, “PURIFIED LACTOFERRIN COMPOSITIONS AND METHODS OF USE” (Lactea Therapeutics LLC, priority 2023, published 2026).

The assay has as its system SARS-CoV-2. Put plainly: SARS-CoV-2 Cytopathic Effect (CPE) reduction assay in Vero E6 cells. It counts as cell-based. To be noted: Vero E6 cells, MOI of 0.001, neutral red, three days post-infection. Background: Damage to the host cells serves as the signal in cytopathic effect assays.

B1: Lactoferrin (“Reagent”): reagent grade Lactoferrin, comparable research grade reference product (protein, UniProt P24627 20-708, looked up)
Lactotransferrin: APRKNVRWCTISQPEWFKCRRWQWRMKKLGAPSITCVRRAFALECIRAIAEKKADAVTLDGGMVFEAGRDPYKLRPVAAEIYGTKESPQTHYYAVAVVKKGSNFQLDQLQGRKSCHTGLGRSAGWIIPMGILRPYLSWTESLEPLQGAVAKFFSASCVPCIDRQAYPNLCQLCKGEGENQCACSSREPYFGYSGAFKCLQDGAGDVAFVKETTVFENLPEKADRDQYELLCLNNSRAPVDAFKECHLAQVPSHAVVARSVDGKEDLIWKLLSKAQEKFGKNKSRSFQLFGSPPGQRDLLFKDSALGFLRIPSKVDSALYLGSRYLTTLKNLRETAEEVKARYTRVVWCAVGPEEQKKCQQWSQQSGQNVTCATASTTDDCIVLVLKGEADALNLDGGYIYTAGKCGLVPVLAENRKSSKHSSLDCVLRPTEGYLAVAVVKKANEGLTWNSLKDKKSCHTAVDRTAGWNIPMGLIVNQTGSCAFDEFFSQSCAPGADPKSRLCALCAGDDQGLDKCVPNSKEKYYGYTGAFRCLAEDVGDVAFVKNDTVWENTNGESTADWAKNLNREDFRLLCLDGTRKPVTEAQSCHLAVAPNHAVVSRSDRAAHVKQVLLHQQALFGKNGKNCPDKFCLFKSETKNLLFNDNTECLAKLGGRPTYEEYLGTEYVTAIANLKKCSTSPLLEACAFLTR
As for B1, the EC50 (commonly the concentration at which the effect is half-maximal) worked out at 140 nM.
